Peptide text beside a SMILES is read from it.
Columns and labels:
[1] = type: in vitro ADME, human
Procedure: The stability of this prodrug in whole human blood was determined, and its activation into the DNR-D-tetrapeptide (or any other positively charged derivative) was checked after incubation in the presence of human cancer cells conditioned media. Breast (MCF-7, MDA-MB-231), colon (LS-174-T), prostate (LNCaP) and lung (COR-L23, NCl-H69) cancer cell lines were used. Metabolites were analyzed by reverse phase-high pressure liquid chromatography (RP-HPLC), and fluorescence detection was used to identify and quantify the DNR derivatives generated over time. […] This particular prodrug is suitable for the in vivo validation of the concept.

tumor-bearing mice = assay: Tissue distribution studies in tumor-bearing mice; type: in vivo; settings: i.v., plasma and tissues, RP-HPLC
Procedure: Mice bearing the same tumor types used for efficacy studies were used. They were injected i.v. with the prodrug, and anesthetized at selected time points. Plasma and tissues (tumor, liver, kidney, spleen, heart, lung and skeletal muscle) were recovered, snap frozen in liquid nitrogen and stored at −80° C. The prodrug and its metabolites were then extracted and quantified by RP-HPLC with fluorescence detection.

OF-1 mice = assay: Toxicity/procoagulant activity after intravenous injection; type: in vivo; settings: intravenous administration; dose levels as low as
Procedure: N-D-Ala-D-Leu-D-Ala-D-Leu-DNR was injected in the lateral tail vein of OF-1 mice at different dose levels in order to determine the minimal dose that induces acute toxicity and kills the animals in less than an hour following the injection. Animals were injected with this dose level and sacrificed befor death resulting from the injection of the conjugate occurs. Organs and tissues were collected, fixed and prepared for histopathology.

enzyme X = settings: cited from earlier work
[2] = Test of polycationic polymers as procoagulant; settings: commercially available polymer
Procedure: An alternative to aggregation inducers to form the positively charged ‘particles’ responsible for coagulation is to use polymers such as poly-Lys. […] POIY-D-Lys of different size derivatized with D-amino acids, dipeptides, tripeptides or tetrapeptides on their terminal and side chain free amino groups were prepared (FIG. 5). Their toxicity and procoagulant activities were compared, and interesting candidates were used for the preparation of prodrugs (FIG. 5). N-succinyl-[…]-Ala-L-Leu-L-Ala-L-Leu or PEG-Ala-Leu-Ala-Leu prodrugs were prepared and compared in terms of efficacy and toxicity to the prodrugs based on aggregation inducers as described above. Alternatively, tests were performed using poly-D-Arg.

N-mPEG350-[…]-Ala-L-Leu-L-Ala-L-Leu-D-Ala-D-Leu-D-Ala-D-Leu-DNR
metabolite formed upon incubation in cancer cells conditioned media [1]: yielded the positively-charged N-L-Leu-D-Ala-D-Leu-D-Ala-D-Leu-DNR derivative | stability in whole human blood [1]: relatively stable | tissue distribution: site of metabolite generation (tumor-bearing mice): generation of a positively-charged procoagulant metabolite specifically within the tumor

COc1cccc2c1C(=O)c1c(O)c3c(c(O)c1C2=O)C[C@@](O)(C(=O)CO)C[C@@H]3O[C@H]1C[C@H](NC(=O)[C@@H](CC(C)C)NC(=O)[C@@H](C)NC(=O)[C@@H](CC(C)C)NC(=O)[C@@H](C)N)[C@H](O)[C@H](C)O1 [N-D-Ala-D-Leu-D-Ala-D-Leu-doxorubicin] (HELM PEPTIDE1{[dA].[dL].[dA].[dL].[COc1cccc2c1C(=O)c1c(O)c3c(c(O)c1C2=O)C[C@@](O)(C(=O)CO)C[C@@H]3O[C@H]1C[C@H](N[*:1])[C@H](O)[C@H](C)O1]}$$$$V2.0; N-terminus and C-terminus assumed)
dose level inducing disseminated intravascular blood clotting (OF-1 mice): 34.5 µmol/kg

N-succinyl-[…]-Ala-L-Leu-L-Ala-L-Leu
substrate quality for enzyme X (enzyme X): optimal substrate

Poly-D-Lys
test as procoagulant polymer [2]: positively tested

COc1cccc2c1C(=O)c1c(O)c3c(c(O)c1C2=O)C[C@@](O)(C(C)=O)C[C@@H]3O[C@H]1C[C@H](NC(=O)[C@@H](CC(C)C)NC(=O)[C@@H](C)NC(=O)[C@@H](CC(C)C)NC(=O)[C@@H](C)N)[C@H](O)[C@H](C)O1 [N-D-Ala-D-Leu-D-Ala-D-Leu-daunorubicin, N-D-Ala-D-Leu-D-Ala-D-Leu-DNR] (HELM PEPTIDE1{[dA].[dL].[dA].[dL].[COc1cccc2c1C(=O)c1c(O)c3c(c(O)c1C2=O)C[C@@](O)(C(C)=O)C[C@@H]3O[C@H]1C[C@H](N[*:1])[C@H](O)[C@H](C)O1]}$$$$V2.0)
dose level inducing disseminated intravascular blood clotting (OF-1 mice): 34.5 µmol/kg

Source: patent publication US20040097586A1, “Anti-tumor compounds” (priority 2001, published 2004)
